Assay results taken from PMC10470007 (The Journal of Biological Chemistry, 2023).

Biological target: T1, 1N3R Tau protein isoform with a V5 insertion between E73 and A74 (V5 epitope tag (simian virus 5 P/V …, strain, labeled with Alexa Fluor 488 NHS (succinimidyl) ester, 2:1 NHS Alexa:Tau-V5))
T1 construct: also called Tau-V5; labeled Tau-V5
Assay: flow cytometry on cells
Conditions: one partner purified

B1: NbV5-AGAP2-Halo-myc (VHH)
VHH: EVQLQASGGGFVQPGGSLRLSCAASGTTSFGDTMGWFRQAPGKEREFVSAISRQGDKHYYADSVKGRFTISRDNSKNTVYLQMNSLRAEDTATYYCAEWMNTRREFITPYWGQGTQVTVSS
notes: also called NbV5 (yeast surface display)
Kd: 29 nM
